Experimental findings from publication PMC2714593, “Insights into the role of Val45 and Gln182 of Escherichia coli MutY in DNA substrate binding and specificity” are described below.

This data set has as its target T1, MutY (EcMutY) wild type (Escherichia coli, UniProt P17802 1-350).
T1 sequence: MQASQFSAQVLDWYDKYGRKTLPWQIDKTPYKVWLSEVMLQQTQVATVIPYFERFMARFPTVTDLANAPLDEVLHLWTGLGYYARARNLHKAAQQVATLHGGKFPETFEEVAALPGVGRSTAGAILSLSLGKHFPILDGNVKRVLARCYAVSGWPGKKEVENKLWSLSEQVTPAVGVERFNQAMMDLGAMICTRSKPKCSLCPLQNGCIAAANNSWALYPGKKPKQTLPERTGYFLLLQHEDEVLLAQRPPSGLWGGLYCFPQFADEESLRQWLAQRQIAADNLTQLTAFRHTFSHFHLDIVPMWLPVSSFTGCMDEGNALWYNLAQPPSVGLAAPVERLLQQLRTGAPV
The experiment in a line: EMSA; 20 mM Tris-HCl pH 7.6, 80 mM NaCl, 1 mM DTT, 1 mM EDTA, 2.9% glycerol, 20 ng poly dI/dC per 20 ul, 0.09 nM labeled DNA, 30 min at 30 C; 4% PAGE in TBE. The following applies: protein: recombinant; label: 5'-32P on X strand; blunt; T/G mismatch at strand 1 position 22.

B1: T/G 44-mer (dsDNA)
DNA 1: AATTGGGCTCCTCGAGGAATTTGCCTTCTGCAGGCATGCCCCGG
DNA 2: CCGGGGCATGCCTGCAGAAGGCGAATTCCTCGAGGAGCCCAATT
The term Kd denotes the concentration at which binding is half-saturated. Take B1: the Kd was determined as 14 ± 1 nM.
